From patent US20210340238A1 (SCHOLAR ROCK, published 2021)

What was measured:
[1] = molecular target: T1, recombinant human LTBP1-proTGFβ1 complex (human, UniProt Q14766 347-1721; P01137 30-390); assay: cell-based or functional assay
[2] = molecular target: human GARP-proTGFβ1 complex presented on the cell surface (human, UniProt Q14392 20-662; P01137 30-390); assay: cell-based or functional assay
[3] = molecular target: human LRRC33-proTGFβ1 complex presented on the cell surface (human, UniProt Q86YC3 19-692; P01137 30-390); assay: cell-based or functional assay
[4] = molecular target: T2, recombinant human LTBP3-proTGFβ1 complex (human, UniProt Q9NS15 44-1303; P01137 30-390, limits assumed); assay: cell-based or functional assay
[5] = molecular target: T1, recombinant human LTBP1-proTGFβ1 complex; assay: MSD-SET; IgG4 from mammalian cells
[6] = molecular target: T3, recombinant human GARP-proTGFβ1 complex (human, UniProt Q14392 20-627; P01137 30-390, limits assumed); assay: MSD-SET; IgG4 from mammalian cells
T3 construct: Purified complex of the Octet and MSD-SET assays, biotinylated; also called hGARP; hGARP-proTGFβ1

[7] = molecular target: T4, recombinant human LRRC33-proTGFβ1 complex (human, UniProt Q86YC3 19-650; P01137 30-390, limits assumed); assay: MSD-SET; IgG4 from mammalian cells
T4 construct: Purified complex of the Octet and MSD-SET assays, biotinylated; also called hLRRC33; hLRRC33-proTGFβ1

[8] = molecular target: T2, recombinant human LTBP3-proTGFβ1 complex; assay: MSD-SET; IgG4 from mammalian cells
[9] = molecular target: T1, recombinant human LTBP1-proTGFβ1 complex; assay: Octet (BLI); IgG1 from yeast
[10] = molecular target: T3, recombinant human GARP-proTGFβ1 complex; assay: Octet (BLI); IgG1 from yeast
[11] = molecular target: T4, recombinant human LRRC33-proTGFβ1 …; assay: Octet (BLI); IgG1 from yeast
[12] = molecular target: T2, recombinant human LTBP3-proTGFβ1 complex; assay: Octet (BLI); IgG1 from yeast

T2 sequence (Q9NS15 44-1303 limits assumed, chain 1 of 2): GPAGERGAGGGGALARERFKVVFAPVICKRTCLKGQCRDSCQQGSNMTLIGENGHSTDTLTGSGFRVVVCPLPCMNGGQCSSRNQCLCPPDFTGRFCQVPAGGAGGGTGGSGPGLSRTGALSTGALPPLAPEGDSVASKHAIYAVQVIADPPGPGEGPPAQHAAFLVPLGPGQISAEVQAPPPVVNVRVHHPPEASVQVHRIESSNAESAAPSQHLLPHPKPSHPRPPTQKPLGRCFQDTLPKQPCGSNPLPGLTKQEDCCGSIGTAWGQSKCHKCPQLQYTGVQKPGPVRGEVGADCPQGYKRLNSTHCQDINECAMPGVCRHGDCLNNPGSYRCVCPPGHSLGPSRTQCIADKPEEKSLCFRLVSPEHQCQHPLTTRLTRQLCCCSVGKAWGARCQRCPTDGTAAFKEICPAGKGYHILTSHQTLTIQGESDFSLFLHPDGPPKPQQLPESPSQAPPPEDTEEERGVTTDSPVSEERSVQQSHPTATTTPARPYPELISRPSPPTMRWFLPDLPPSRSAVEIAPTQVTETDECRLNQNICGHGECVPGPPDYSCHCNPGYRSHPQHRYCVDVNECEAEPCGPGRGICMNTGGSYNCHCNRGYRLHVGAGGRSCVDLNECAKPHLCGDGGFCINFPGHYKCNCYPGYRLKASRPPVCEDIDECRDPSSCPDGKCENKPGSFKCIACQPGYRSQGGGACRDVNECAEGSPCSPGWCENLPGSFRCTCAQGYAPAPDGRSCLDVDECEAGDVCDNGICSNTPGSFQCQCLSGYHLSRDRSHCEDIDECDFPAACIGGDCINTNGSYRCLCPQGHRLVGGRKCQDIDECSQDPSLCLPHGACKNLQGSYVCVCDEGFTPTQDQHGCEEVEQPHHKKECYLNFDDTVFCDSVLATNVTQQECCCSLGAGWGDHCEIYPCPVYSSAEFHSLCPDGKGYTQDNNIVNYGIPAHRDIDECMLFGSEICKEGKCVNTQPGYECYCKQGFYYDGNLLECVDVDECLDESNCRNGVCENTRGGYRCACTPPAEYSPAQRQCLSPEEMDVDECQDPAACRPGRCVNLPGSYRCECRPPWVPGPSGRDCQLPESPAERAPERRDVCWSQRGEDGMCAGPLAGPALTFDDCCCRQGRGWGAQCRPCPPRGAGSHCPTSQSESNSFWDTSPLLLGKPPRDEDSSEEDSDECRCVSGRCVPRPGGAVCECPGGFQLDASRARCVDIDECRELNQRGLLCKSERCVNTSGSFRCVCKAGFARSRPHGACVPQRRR
T2 sequence (P01137 30-390 limits assumed, chain 2 of 2): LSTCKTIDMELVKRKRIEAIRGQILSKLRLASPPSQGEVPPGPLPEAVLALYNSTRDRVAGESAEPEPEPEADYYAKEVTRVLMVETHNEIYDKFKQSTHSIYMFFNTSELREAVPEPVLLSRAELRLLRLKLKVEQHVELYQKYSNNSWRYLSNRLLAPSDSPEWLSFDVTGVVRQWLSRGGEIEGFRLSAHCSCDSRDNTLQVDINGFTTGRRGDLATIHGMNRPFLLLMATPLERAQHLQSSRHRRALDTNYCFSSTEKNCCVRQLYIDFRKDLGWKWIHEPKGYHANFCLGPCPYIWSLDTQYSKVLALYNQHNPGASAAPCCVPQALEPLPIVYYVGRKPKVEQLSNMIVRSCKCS
T1 sequence (Q14766 347-1721 limits assumed, chain 1 of 2): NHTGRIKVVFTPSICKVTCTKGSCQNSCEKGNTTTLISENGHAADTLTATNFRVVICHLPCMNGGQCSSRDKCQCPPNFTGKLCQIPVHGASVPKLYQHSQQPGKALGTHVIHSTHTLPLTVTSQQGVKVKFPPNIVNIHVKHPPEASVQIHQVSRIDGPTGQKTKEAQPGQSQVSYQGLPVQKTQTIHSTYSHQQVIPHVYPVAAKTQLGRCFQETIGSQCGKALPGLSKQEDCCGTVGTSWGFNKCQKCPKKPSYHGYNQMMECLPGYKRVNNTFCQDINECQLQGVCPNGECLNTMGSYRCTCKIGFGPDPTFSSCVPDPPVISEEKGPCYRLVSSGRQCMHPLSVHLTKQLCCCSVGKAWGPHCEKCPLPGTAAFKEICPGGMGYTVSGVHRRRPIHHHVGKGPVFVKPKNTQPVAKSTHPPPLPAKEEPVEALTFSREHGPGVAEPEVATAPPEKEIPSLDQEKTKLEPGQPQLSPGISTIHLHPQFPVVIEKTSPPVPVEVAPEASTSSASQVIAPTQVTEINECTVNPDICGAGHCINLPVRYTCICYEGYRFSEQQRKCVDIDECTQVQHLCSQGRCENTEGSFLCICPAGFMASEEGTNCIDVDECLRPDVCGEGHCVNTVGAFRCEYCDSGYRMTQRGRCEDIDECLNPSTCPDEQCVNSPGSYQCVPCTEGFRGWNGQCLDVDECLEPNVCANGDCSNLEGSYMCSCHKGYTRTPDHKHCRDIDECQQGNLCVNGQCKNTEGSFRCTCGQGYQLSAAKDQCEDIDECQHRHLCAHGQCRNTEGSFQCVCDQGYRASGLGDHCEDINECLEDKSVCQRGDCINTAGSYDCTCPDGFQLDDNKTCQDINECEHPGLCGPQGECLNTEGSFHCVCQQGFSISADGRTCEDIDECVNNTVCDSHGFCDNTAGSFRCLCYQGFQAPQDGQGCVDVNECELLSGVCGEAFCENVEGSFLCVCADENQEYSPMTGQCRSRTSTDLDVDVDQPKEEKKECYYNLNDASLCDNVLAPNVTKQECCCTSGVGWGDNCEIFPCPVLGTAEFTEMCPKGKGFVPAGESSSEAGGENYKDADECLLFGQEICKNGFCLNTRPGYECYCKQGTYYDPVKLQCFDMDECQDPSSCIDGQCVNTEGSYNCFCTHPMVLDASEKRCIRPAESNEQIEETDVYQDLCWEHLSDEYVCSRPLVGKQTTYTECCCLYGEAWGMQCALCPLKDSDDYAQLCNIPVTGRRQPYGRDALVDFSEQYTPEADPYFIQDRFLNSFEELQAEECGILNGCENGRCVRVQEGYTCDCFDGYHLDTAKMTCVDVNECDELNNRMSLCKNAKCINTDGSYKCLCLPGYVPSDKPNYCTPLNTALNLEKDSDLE
T1 sequence (P01137 30-390 limits assumed, chain 2 of 2): as the sequence (P01137 30-390 limits assumed, chain 2 of 2) above
T3 sequence (Q14392 20-627 limits assumed, chain 1 of 2): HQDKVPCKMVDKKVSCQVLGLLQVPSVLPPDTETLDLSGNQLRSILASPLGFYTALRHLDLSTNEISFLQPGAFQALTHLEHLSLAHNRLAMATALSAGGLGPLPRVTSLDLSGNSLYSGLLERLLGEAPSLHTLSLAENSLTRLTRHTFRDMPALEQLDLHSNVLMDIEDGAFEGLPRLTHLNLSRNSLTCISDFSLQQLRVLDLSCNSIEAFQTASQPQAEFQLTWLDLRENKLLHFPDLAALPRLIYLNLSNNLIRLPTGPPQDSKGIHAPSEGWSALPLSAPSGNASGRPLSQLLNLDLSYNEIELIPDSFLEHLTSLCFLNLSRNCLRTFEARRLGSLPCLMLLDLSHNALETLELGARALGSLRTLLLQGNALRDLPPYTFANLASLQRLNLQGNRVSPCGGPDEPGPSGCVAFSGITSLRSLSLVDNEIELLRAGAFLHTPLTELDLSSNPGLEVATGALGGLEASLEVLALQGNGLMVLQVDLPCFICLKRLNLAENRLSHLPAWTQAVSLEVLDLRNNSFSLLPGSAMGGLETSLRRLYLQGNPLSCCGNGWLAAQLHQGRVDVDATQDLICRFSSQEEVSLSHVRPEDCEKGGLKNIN
T3 sequence (P01137 30-390 limits assumed, chain 2 of 2): as the sequence (P01137 30-390 limits assumed, chain 2 of 2) above
T4 sequence (Q86YC3 19-650 limits assumed, chain 1 of 2): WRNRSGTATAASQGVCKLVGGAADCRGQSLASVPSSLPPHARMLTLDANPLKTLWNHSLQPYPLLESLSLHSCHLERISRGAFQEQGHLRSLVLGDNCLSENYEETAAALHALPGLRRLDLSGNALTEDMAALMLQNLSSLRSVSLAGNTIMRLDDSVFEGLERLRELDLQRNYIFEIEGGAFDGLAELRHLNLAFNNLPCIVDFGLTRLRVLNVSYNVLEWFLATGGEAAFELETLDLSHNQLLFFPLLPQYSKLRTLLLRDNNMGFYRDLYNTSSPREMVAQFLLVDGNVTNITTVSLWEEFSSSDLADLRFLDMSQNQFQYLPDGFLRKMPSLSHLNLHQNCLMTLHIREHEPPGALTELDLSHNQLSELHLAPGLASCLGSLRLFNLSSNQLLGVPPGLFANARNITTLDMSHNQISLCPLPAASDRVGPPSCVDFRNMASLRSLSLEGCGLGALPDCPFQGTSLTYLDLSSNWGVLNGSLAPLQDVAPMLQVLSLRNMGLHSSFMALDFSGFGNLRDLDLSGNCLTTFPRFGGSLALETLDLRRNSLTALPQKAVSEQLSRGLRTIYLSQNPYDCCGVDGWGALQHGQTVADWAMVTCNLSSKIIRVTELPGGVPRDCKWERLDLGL
T4 sequence (P01137 30-390 limits assumed, chain 2 of 2): as the sequence (P01137 30-390 limits assumed, chain 2 of 2) above

IC50 (nM), cell-based potency assay, CAGA12 luciferase reporter [1]: 24.3 nM
IC50 (nM), cell-based potency assay, CAGA12 luciferase reporter [2]: 0.981 nM
IC50 (nM), cell-based potency assay, CAGA12 luciferase reporter [3]: 0.858 nM
IC50 (nM), cell-based potency assay, CAGA12 luciferase reporter [4]: 10.4 nM
Kd [5]: 13 nM
Kd [6]: 28 nM
Kd [7]: 35 nM
Kd [8]: 16.2 nM
Kd [9]: 0.47 nM
Kd [10]: 17.3 nM
Kd [11]: 8.52 nM
Kd [12]: 0.459 nM
B1: Ab3 (antibody, V domains shown)
VH: EVQLLESGGGLVQPGGSLRLSCAASGFTFRNYAMSWVRQAPGKGLEWVSSISGSGGATYYADSVKGRFTISRDNSKNTLYLQMNSLRAEDTAVYYCARVSSGHWDFDYWGQGTLVTVSS
VL: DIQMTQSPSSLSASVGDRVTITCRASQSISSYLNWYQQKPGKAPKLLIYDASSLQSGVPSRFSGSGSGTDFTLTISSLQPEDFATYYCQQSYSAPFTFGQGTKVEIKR
